First the molecules themselves.
B1: CD3 × CD33-BspAb39 (bispecific antibody)
chain 1: not shown
chain 2: EVQLVQSGAEVKKPGSSVKVSCKASGYTITDSNIHWVRQAPGQSLEWIGYIYPYNGGTDYNQKFKNRATLTVDNPTNTAYMELSSLRSEDTAFYYCVNGNPWLAYWGQGTLVTVSSASTKGPSVFPLAPSSKSTSGGTAALGCLVKDYFPEPVTVSWNSGALTSGVHTFPAVLQSSGLYSLSSVVTVPSSSLGTQTYICNVNHKPSNTKVDKRVEPKSCDKTHTCPPCPAPEFEGGPSVFLFPPKPKDTLMISRTPEVTCVVVDVSHEDPEVKFNWYVDGVEVHNAKTKPREEQYNSTYRVVSVLTVLHQDWLNGKEYKCKVSNKALPASIEKTISKAKGQPREPQVCTLPPSREEMTKNQVSLSCAVKGFYPSDIAVEWESNGQPENNYKTTPPVLDSDGSFFLVSKLTVDKSRWQQGNVFSCSVMHEALHNRFTQKSLSLSPGK
chain 3: DIQLTQSPSTLSASVGDRVTITCRASESLDNYGIRFLTWFQQKPGKAPKLLMYAASNQGSGVPSRFSGSGSGTEFTLTISSLQPDDFATYYCQQTKEVPWSFGQGTKVEVKRTVAAPSVFIFPPSDEQLKSGTASVVCLLNNFYPREAKVQWKVDNALQSGNSQESVTEQDSKDSTYSLSSTLTLSKADYEKHKVYACEVTHQGLSSPVTKSFNRGEC
B2: CD3 × CD33-BspAb51 (bispecific antibody)
chain 1: not shown
chain 2: B1 chain 2
chain 3: B1 chain 3
B3: CD3 × CD33-BspAb50 (bispecific antibody)
chain 1: not shown
chain 2: B1 chain 2
chain 3: B1 chain 3
B4: CD3 × CD33-BspAb62 (bispecific antibody)
chain 1: NFMLTQPHSVSESPGKTVTISCTRSSGSIASNYVQWYQQRPGSSPTTVIYEDNQRPSGVPDRFSGSIDSSSNSASLTISGLKTEDEADYYCQSYDSSNHVFGCGTKLTVLGGGGSGGGGSGGGGSGGGGSEVQLVESGGGLVQPGGSLRLSCAASGFTFSRYSMNWVRQAPGKCLEWVSYISSSSSSIYYADSVKGRFTISRDNAKNSLYLQMNSLRDEDTAVYYCARDRRATLDYWGQGTLVTVSSDKTHTCPPCPAPEFEGGPSVFLFPPKPKDTLMISRTPEVTCVVVDVSHEDPEVKFNWYVDGVEVHNAKTKPREEQYNSTYRVVSVLTVLHQDWLNGKEYKCKVSNKALPASIEKTISKAKGQPREPQVYTLPPCREEMTKNQVSLWCLVKGFYPSDIAVEWESNGQPENNYKTTPPVLDSDGSFFLYSKLTVDKSRWQQGNVFSCSVMHEALHNHYTQKSLSLSPGK
chain 2: B1 chain 2
chain 3: B1 chain 3
B5: CD3 × CD33-BspAb37 (bispecific antibody)
chain 1: not shown
chain 2: B1 chain 2
chain 3: B1 chain 3
B6: CD3 × CD33-BspAb42 (bispecific antibody)
chain 1: EVQLVESGGGLVKPGGSLRLSCAASGFTLSSYSMNWVRQAPGKCLEWVSSISRSGSYIYYADSVKGRFTISRDNAKNSLYLQMNSLRAEDTAVYYCAREKWELLYFDYWGQGTLVTVSSGGGGSGGGGSGGGGSGGGGSNFMLTQPHSVSESPGKTVTISCTRSSGSIASNYVQWYQQRPGSSPTTVIYEDNQRPSGVPDRFSGSIDSSSNSASLTISGLKTEDEADYYCQSYDSSNRVFGCGTKLTVLDKTHTCPPCPAPEFEGGPSVFLFPPKPKDTLMISRTPEVTCVVVDVSHEDPEVKFNWYVDGVEVHNAKTKPREEQYNSTYRVVSVLTVLHQDWLNGKEYKCKVSNKALPASIEKTISKAKGQPREPQVYTLPPCREEMTKNQVSLWCLVKGFYPSDIAVEWESNGQPENNYKTTPPVLDSDGSFFLYSKLTVDKSRWQQGNVFSCSVMHEALHNHYTQKSLSLSPGK
chain 2: B1 chain 2
chain 3: B1 chain 3
B7: CD3 × CD33-BspAb52 (bispecific antibody)
chain 1: not shown
chain 2: B1 chain 2
chain 3: B1 chain 3
B8: CD3 × CD33-BspAb45 (bispecific antibody)
chain 1: EVQLVESGGGLVQPGGSLRLSCAASGFTFSRYSMNWVRQAPGKCLEWVSYISSSSSSIYYADSVKGRFTISRDNAKNSLYLQMNSLRDEDTAVYYCARDRRATLDYWGQGTLVTVSSGGGGSGGGGSGGGGSGGGGSNFMLTQPHSVSESPGKTVTISCTRSSGSIASNYVQWYQQRPGSSPTTVIYEDNQRPSGVPDRFSGSIDSSSNSASLTISGLKTEDEADYYCQSYDSSNHVFGCGTKLTVLDKTHTCPPCPAPEFEGGPSVFLFPPKPKDTLMISRTPEVTCVVVDVSHEDPEVKFNWYVDGVEVHNAKTKPREEQYNSTYRVVSVLTVLHQDWLNGKEYKCKVSNKALPASIEKTISKAKGQPREPQVYTLPPCREEMTKNQVSLWCLVKGFYPSDIAVEWESNGQPENNYKTTPPVLDSDGSFFLYSKLTVDKSRWQQGNVFSCSVMHEALHNHYTQKSLSLSPGK
chain 2: B1 chain 2
chain 3: B1 chain 3
B9: CD3 × CD33-BspAb61 (bispecific antibody)
chain 1: NFMLTQPHSVSESPGKTVTISCTRSSGSIASNYVQWYQQRPGSSPTTVIYEDNQRPSGVPDRFSGSIDSSSNSASLTISGLKTEDEADYYCQSFDNSNRVFGCGTKLTVLGGGGSGGGGSGGGGSGGGGSEVQLVESGGGLVKPGGSLRLSCAASGFTFSRYSMNWVRQAPGKCLKWVSSISSSGSYKYYADSVKGRFTISRDNAKNSLYLQMNSLRAEDTAVYYCAREPPTLGMDYWGQGTLVTVSSDKTHTCPPCPAPEFEGGPSVFLFPPKPKDTLMISRTPEVTCVVVDVSHEDPEVKFNWYVDGVEVHNAKTKPREEQYNSTYRVVSVLTVLHQDWLNGKEYKCKVSNKALPASIEKTISKAKGQPREPQVYTLPPCREEMTKNQVSLWCLVKGFYPSDIAVEWESNGQPENNYKTTPPVLDSDGSFFLYSKLTVDKSRWQQGNVFSCSVMHEALHNHYTQKSLSLSPGK
chain 2: B1 chain 2
chain 3: B1 chain 3

The target in the experiment is recombinant CD3 proteins. The experiment is described as follows: Octet (BLI), bispecific antibody against recombinant CD3 proteins.
As to B1, the Kd was determined as 299 nM, the Response amounted to 0.1, the koff came to 0.117 s⁻¹ and the kon was 391000 M⁻¹ s⁻¹.

On to B2, for which the Kd is 74 nM, the Response was found to be 0.26, the koff is 0.00232 s⁻¹ and the kon came to 31400 M⁻¹ s⁻¹.

Turning to B3, the Kd was found to be 125 nM, the Response was 0.33, the koff stood at 0.00262 s⁻¹ and the kon amounted to 21000 M⁻¹ s⁻¹.

Consider B4, for which the dissociation constant Kd turned out to be 85.9 nM, the Response is 0.25, the koff turned out to be 0.0474 s⁻¹ and the kon is 552000 M⁻¹ s⁻¹.

For the molecule B5, the Kd was found to be 213 nM, the Response was found to be 0.34, the dissociation rate constant (koff) is 0.00336 s⁻¹ and the association rate constant (kon) was determined as 15800 M⁻¹ s⁻¹.

As to B6, the Kd is 133 nM, the Response is 0.51, the koff came out at 0.0186 s⁻¹ and the on-rate constant (kon) came out at 139000 M⁻¹ s⁻¹.

As for B7, the dissociation constant (Kd) stood at 19.5 nM, the Response is 0.07, the off-rate (koff) came out at 0.00751 s⁻¹ and the kon was determined as 386000 M⁻¹ s⁻¹.

With B8, the Kd came out at 177 nM, the Response came out at 0.58, the koff is 0.0529 s⁻¹ and the on-rate constant (kon) was determined as 299000 M⁻¹ s⁻¹.

B9: the dissociation constant Kd was 7.62 nM, the Response is 0.74, the koff turned out to be 0.00187 s⁻¹ and the on-rate constant (kon) amounted to 245000 M⁻¹ s⁻¹.

(Values after US20260167721A1 (ABLEXIS, published 2026).)
